Values of other authors as cited in PMC3157396, “Molecular Basis for the Recognition of Adenomatous Polyposis Coli by the Discs Large 1 Protein” (PLoS ONE, 2011).

Test system: PDZ1 and PDZ2 domains of PSD-95
Source text: The 3D structures of the three PDZ domains of DLG1 have been determined in the free forms [13]–[15]. They share very similar structures, and the ligand binding pockets are also conserved. […] The residues in the β2/β3 loop ...

B1: Kv1.4 potassium channel: Kv1.4 potassium channel (protein, UniProt P22459 1-653, looked up)
Potassium voltage-gated …: MEVAMVSAESSGCNSHMPYGYAAQARARERERLAHSRAAAAAAVAAATAAVEGSGGSGGGSHHHHQSRGACTSHDPQSSRGSRRRRRQRSEKKKAHYRQSSFPHCSDLMPSGSEEKILRELSEEEEDEEEEEEEEEEGRFYYSEDDHGDECSYTDLLPQDEGGGGYSSVRYSDCCERVVINVSGLRFETQMKTLAQFPETLLGDPEKRTQYFDPLRNEYFFDRNRPSFDAILYYYQSGGRLKRPVNVPFDIFTEEVKFYQLGEEALLKFREDEGFVREEEDRALPENEFKKQIWLLFEYPESSSPARGIAIVSVLVILISIVIFCLETLPEFRDDRDLVMALSAGGHGGLLNDTSAPHLENSGHTIFNDPFFIVETVCIVWFSFEFVVRCFACPSQALFFKNIMNIIDIVSILPYFITLGTDLAQQQGGGNGQQQQAMSFAILRIIRLVRVFRIFKLSRHSKGLQILGHTLRASMRELGLLIFFLFIGVILFSSAVYFAEADEPTTHFQSIPDAFWWAVVTMTTVGYGDMKPITVGGKIVGSLCAIAGVLTIALPVPVIVSNFNYFYHRETENEEQTQLTQNAVSCPYLPSNLLKKFRSSTSSSLGDKSEYLEMEEGVKESLCAKEEKCQGKGDDSETDKNNCSNAKAVETDV
- change of binding affinity on deletion of six residues from the β2/β3 loops (in words): decreases the binding affinity
